Data: patent US20140348834A1 (published 2014)

B1: IL17-h5C5.18 (antibody, V domains shown)
VH: EVQLVQSGAEVKKPGASVKVSCKASGYTFTDYEFHWVRQAPGQGLEWIGVIHPGNGGTAYNQNFRDRATLTADKSTSTAYMELSSLRSEDTAVYYCTRFLTYEGYFDYWGQGTLVTVSS
VL: NIVMTQSPSSLSASVGDRVTITCKASQSVSIDVGWFQQKPGKSPKLLIYHASNRYTGVPSRFSGSGSGTDFTFTISSLQPEDFATYFCQQDYSSPYTFGQGTKLEIKR
notes: IgG; constant regions not specified; also called h5C5.18 (VH.1b-Vk.1c)
B2: IL17-LN-K9-F5 (antibody, V domains shown)
VH: EVQLVQSGAEVKNPGASVKVSCKVSGSRLSDLAMHWVRQAPGKGPEWMGGFDPDEGETVYAQNFQGRVSMTEDTSSDTAYMELNSLRSEDTAVYYCATIRPWLGGAYYFDNWGQGTLVTVSS
VL: ETTLTQSPAFMSATPGDKVNISCKASQDIDDDMNWYQQKPGEAALFIIQEATTLVPGIPPRFSGSGYGTDFTLTVNNIQSEDAAYYFCLQHDSFPYTFGQGTKLEIKR
notes: Fully human monoclonal antibody from mRNA display
B3: IL17-B6-46 (antibody, V domains shown)
VH: EVQLVQSGAEVKKPGESLKISCKASGGSFISYGISWVRQAPGQGLEWMGGITHFFGSTDYAQKFQGRVTITADESTTTAYMELSGLTSDDTAVYYCAREPNEFWNGYYTTHDFDSWGQGTTVTVSS
VL: EIVLTQSPDFQSVTPKEKVTITCRASQAIGSELHWYQQKPDQSPKLLIKYASYSVSGVPSRFSGSGSGTDFTLTINGLEAEDAGTYYCHQSASLPYTFGQGTKVDIK
notes: also called pJP253 B6.1 #46VH / pJP254 B6.1 #46Vk
B4: IL17-B6-18 (antibody, V domains shown)
VH: EVQLVQSGAEVKKPGESLKVSCKASGGRFRTYGISWVRQAPGQGLEWMGGITNFFGWTDYAQKFQGRVTITADESTTTAYMELSGLTSDDTAVYYCARVPNEFWNGYYATDYFDNWGQGTTVTVSS
VL: EIVLTQSPDFQSVTPKEKVTITCRASQEIGASLHWYQQKPDQSPKLLIKYASHSASGVPSRFSGSGSGTDFTLTINSLEAEDAATYYCHQSDGLPYTFGQGTKVDIK
notes: also called pJP251 B6.1 #18VH / pJP250 B6.1 #18Vk
B5: IL17-B6-16 (antibody, V domains shown)
VH: EVQLVQSGAEVKMPGSSLKISCKASGGSFRGYGISWVRQAPGQGLEWMGGITPFFGWADYAQKFQGRVTITADESTTTAYMELSGLTSDDTAVYYCARDPNEFWNGYYDTHHFDYWGQGTTVTVSS
VL: EIVLTQSPDFQSVTPKEKVTITCRASQDIGSALHWYQQKPDQSPKLLIKYASHSVSGVPSRFSGSGSGTDFTLTINGLEAEDAGTYYCHQSDILPHTFGPGTKVDIK
B6: IL17-B6-15 (antibody, V domains shown)
VH: EVQLVQSGAEVKKPGESLKISCKASGGSFSGYGTSWVRQAPGQGLEWMGGITHFFGAVDYAQKFQGRVTITADESTTTAYMELSGLTSDDTAVYYCARDPNEFWNGYYATHDFDYWGQGTTVTVSS
VL: EIVLTQSPDFQSVTPKEKVTITCRASQNIGAELHWYQQKPDQSPKLLIKYASHSISGVPSRFSGSGSGTDFTLTINGLEAEDAGTYYCHQTDRLPYSFGPGTKVDIK
B7: IL17-B6-29 (antibody, V domains shown)
VH: EVQLVQSGAEVKKPGSSVKVSCKASGGSFISYGYNWVRQAPGQGLEWMGGITPFFGTADYAQKFQGRVTITADESTTTAYMELSGLTSDDTAVYYCAREPNDFWNGYYTTHHFDYWGQGTTVTVSS
VL: DVVMTQSPDFQSVTPKEKVTITCRASQNIGSALHWYQQKPDQSPKLLIKYASQSISGVPSRFSGSGSGTDFTLTINGLEAEDAGTYYCHQSTSLPHTFGQGTKLDIKR
B8: IL17-TN-K7-B6 (antibody, V domains shown)
VH: EVQLVQSGAEVKKPGESLKISCKASGGSFRSYGISWVRQAPGQGLEWMGGITPILGTANYAQKFQGRVTITADESTTTAYMELSGLTSDDTAVYYCAREPNDFWNGYYTTHHFDYWGQGTPVTVSS
VL: DVVMTQSPDFQSVTPKEKVTITCRASQNIGSALHWYQQKPDQSPKLLIKYASQSISGVPSRFSGSGSGTDFTLTINGLEAEDAGTYYCHQSTSLPHTFGQGTKLDIKR
notes: Fully human antibody
B9: IL17-G9-3 (antibody, V domains shown)
VH: EVQLLESGGGVVQPGRSLRLSCAASGFIFSNYGMHWVRQAPGKGLEWVAVISYDGSNKYYADSVKGRFTISRDNSKNTLYLEMNSLRPEDTAVYYCAKVGASGDYYYSYGLDVWGQGTTVTVSS
VL: QSVLTQPPSASGTPGQTVSISCSGRNSNIGSHYVHWYQQVPGAAPKLLMYDFGLRPSGVPDRFSVSQSGTSASLAISGLQSEDEADYYCATWDDMLGGYVFGTGTKVTVLG
B10: IL17-G9-5 (antibody, V domains shown)
VH: EVQLLESGGGVVQPGRSLRLSCAASGFIFRNYGMHWVRQAPGKGLEWVAVIAYDGSRQYYSDSVKGRFTISRDNSKNTLYLEMNSLRPEDTAVYYCAKVGASGDYYYSYGLDLWGQGTTVTVSS
VL: QSVLTQPPSASGTPGQTVSISCSGRQSNIGRHYVDWYQQVPGAAPKLLMYYDSIRPSGVPDRFSGSQSGTSASLAISGLQSEDEADYYCGMWDDSLAGYVFGSGTKVTVLG
B11: IL17-G9-M1 (antibody, V domains shown)
VH: EVQLLESGGGVVQPGRSLRLSCAASGFIFSNYGMHWVRQAPGKGLEWVAVISYDGGYKYYADSVKGRFTISRDNSKNTLYLEMNSLRPEDTAVYYCAKLSLSGDYYYSYGFDGWGQGTTVTVSS
VL: QSVLTQPPSASGTPGQTVSISCSGSKSNIGSHYVHWYQQVPGAAPKLLMYDFGQRPSGVPDRFSGSQSGTSASLAISGLQSEDEADYYCGTWDDWLGGYVFGTGTKVTVLG
B12: IL17-G9-6 (antibody, V domains shown)
VH: EVQLLESGGGVVQPGRSLRLSCAASGFIFSDYGMHWVRQAPGKGLEWVAVISYDGSNKYYADSVKGRFTISRDNSKNTLYLEMNSLRPEDTAVYYCAKVGASGDYYYSYGLDVWGQGTTVTVSS
VL: QSVLTQPPSASGTPGQTVSISCSGRQSNIGNHYVDWYQQVPGAAPKLLIYGDVIRPSGVPDRFSGSQSGTSASLAISGLQSEDEADYYCATWDDWLAGYVFGSGTKVTVLG
B13: IL17-G9-M1 (antibody, V domains shown)
VH: EVQLLESGGGVVQPGRSLRLSCAASGFIFSNYGMHWVRQAPGKGLEWVAVISYDGGYKYYADSVKGRFTISRDNSKNTLYLEMNSLRPEDTAVYYCAKLSLSGDYYYSYGFDGWGQGTTVTVSS
VL: QSVLTQPPSASGTPGQTVSISCSGSKSNIGSHYVHWYQQVPGAAPKLLMYDFGQRPSGVPDRFSGSQSGTSASLAISGLQSEDEADYYCGTWDDWLGGYVFGTGTKVTVLG
B14: IL17-G9-M2 (antibody, V domains shown)
VH: EVQLLESGGGVVQPGRSLRLSCAASGFIFSNYGMHWVRQAPGKGLEWVAVISYDGSNKYYADSVKGRFTISRDNSKNTLYLEMNSLRPEDTAVYYCAKVGASGDYYYSYGLDVWGQGTTVTVSS
VL: QSVLTQPPSASGTPGQTVSISCSGHNSNIGYHYVHWYQQVPGAAPKLLIYGDGWRPSGVPDRFSGSQSGTSASLAISGLQSEDEADYYCGTWDDWLGGYVFGTGTKVTVLG
notes: converted into IgG

Tests used:
human IL-17A [1] = target: T1, human IL-17A (human, UniProt Q16552 24-155); experiment: hIL17A ELISA
T1 construct: Recombinant; biotinylated in the ELISA; also called hIL-17; hIL17A
T1 sequence (Q16552 24-155): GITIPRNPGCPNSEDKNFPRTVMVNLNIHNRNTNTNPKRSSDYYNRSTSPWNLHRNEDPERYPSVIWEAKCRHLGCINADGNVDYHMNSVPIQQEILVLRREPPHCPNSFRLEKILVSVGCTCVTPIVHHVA

human IL-17A [2] = target: T1, human IL-17A; experiment: SPR (Biacore 3000), antibody captured by anti-Fc, antigen in solution;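 note: purified recombinant IL-17 antigens flowed over captured antibodies in HBS-EP buffer, global Langmuir one-to-one fit of association and dissociation phases, KD derived from koff over kon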
human IL-17A/F [3] = target: T2, human IL-17A/F (human, UniProt Q16552 24-155; Q96PD4 31-163); experiment: as above
T2 construct: Recombinant; biotinylated in the ELISA; also called hIL-17A/F; HuIL-17A/F
T2 sequence (Q16552 24-155, chain 1 of 2): as the sequence (Q16552 24-155) above
T2 sequence (Q96PD4 31-163, chain 2 of 2): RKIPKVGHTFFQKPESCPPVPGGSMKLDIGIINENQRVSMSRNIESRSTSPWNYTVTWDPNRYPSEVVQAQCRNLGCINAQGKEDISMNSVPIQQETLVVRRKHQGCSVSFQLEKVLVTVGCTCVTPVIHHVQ

cynomolgus monkey IL-17A = target: T3, cynomolgus monkey IL-17A (cynomolgus monkey, UniProt A0A2K5TTB0 24-155); experiment: as above
T3 construct: biotinylated in the ELISA; also called cyno IL-17; Cyno IL-17A

rat IL-17A = target: T4, rat IL-17A (rat, UniProt Q61453 18-150, limits assumed); experiment: as above
T4 construct: Purified recombinant protein in SPR
T4 sequence (looked up): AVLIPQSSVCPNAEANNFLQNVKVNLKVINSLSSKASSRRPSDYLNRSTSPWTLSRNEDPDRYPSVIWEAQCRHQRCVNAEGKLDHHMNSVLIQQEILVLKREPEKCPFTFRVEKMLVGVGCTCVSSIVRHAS

mouse IL-17A = target: T5, mouse IL-17A (mouse, UniProt Q62386 26-158, limits assumed); experiment: as above
T5 construct: Purified recombinant protein in SPR; also called MuIL-17A; murine IL-17A
T5 sequence (looked up): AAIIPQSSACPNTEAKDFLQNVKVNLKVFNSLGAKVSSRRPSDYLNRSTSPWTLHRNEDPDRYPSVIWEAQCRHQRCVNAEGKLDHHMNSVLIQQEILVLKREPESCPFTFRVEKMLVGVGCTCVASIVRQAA

human IL-17A [4] = target: T6, human IL-17A (human, UniProt Q16552 24-155); experiment: ELISA, captured antibody, serially diluted biotin-IL-17 (Example 1.5.1)
T6 construct: Biotinylated in the ELISA; also called hIL-17; Hu IL-17A
T6 sequence (Q16552 24-155 limits assumed): as the sequence (Q16552 24-155) above
Procedure: The following protocol is used to characterize the binding of IL-17 antibodies to human IL-17 by enzyme-linked immunosorbent assay (ELISA). […] 1. Coat ELISA plate with 50 μl per well of Goat anti Mouse IgG-Fc at 2 ug/ml, overnight at 4° C. […] 2. Wash plate 3×PBS/Tween. […] 3. Add 50 μl Mab diluted to 1 μg/ml in PBS/0.1% BSA to appropriate wells. Incubate 1 hr at room temperature (RT). […] 4. Wash plate 3× with PBS/Tween. […] 5. Add 50 μl of serial diluted biotin-IL17 (human IL-17, IL-17A/F, cyno IL-17) to appropriate wells. Incubate 1 hr at room temperature (RT). […] 6. Wash plate 3× with PBS/Tween. […] 7. […] Incubate 1 hr at RT. […] 8. Wash plate 3× with PBS/Tween. […] 9. […] 10. Stop reaction with 50 μl 2N H₂SO₄. […] Read absorbance at 450 nm.

human IL-17A [5] = target: T6, human IL-17A; experiment: cell-based or functional assay
human IL-17A [6] = target: T7, human IL-17A (human, UniProt Q16552 24-155); experiment: SPR Biacore, captured binder
T7 construct: Purified recombinant; biotinylated in the ELISA; also called HuIL-17A; Hu IL-17A
T7 sequence (Q16552 24-155 limits assumed): as the sequence (Q16552 24-155) above
Procedure: (§1) The binding of antibodies to purified recombinant human, cyno, rat, mouse, rabbit IL-17 and human IL-17A/F were determined by surface plasmon resonance-based measurements with a Biacore® 3000 instrument (Biacore® AB, Uppsala, Sweden) using running HBS-EP (10 mM HEPES [pH 7.4], 150 mM NaCl, 3 mM EDTA, and 0.005% surfactant P20) at 25° C. […] Approximately 5000 RU of goat anti-mouse or anti-human IgG (Fcγ) fragment specific polyclonal antibody (Pierce Biotechnology Inc, Rockford, Ill.) diluted in 10 mM sodium acetate (pH 4.5) was directly immobilized across a CM5 research grade biosensor chip using a standard amine coupling kit according to manufacturer's instructions and procedures at 25 μg/ml. Unreacted moieties on the biosensor surface were blocked with ethanolamine. Modified carboxymethyl dextran surface in flowcell 2 and 4 was used as a reaction surface. Unmodified carboxymethyl dextran without goat anti-mouse or anti-human IgG in flow cell 1 and 3 was used as the reference surface. For kinetic analysis, rate equations derived from the 1:1 Langmuir binding model were fitted simultaneously to association and dissociation phases of all eight injections (using global fit analysis) with the use of Biaevaluation 4.0.1 software. Purified antibodies were diluted in HEPES-buffered saline for capture across goat anti-mouse or anti-human IgG specific reaction surfaces. Antibodies to be captured as a ligand (25 μg/ml) were injected over reaction matrices at a flow rate of 5 μl/min. The association and dissociation rate constants, kon (unit M-1s-1) and koff (unit s-1) were determined under a continuous flow rate of 25 μl/min. Rate constants were derived by making kinetic binding measurements at ten different antigen concentrations ranging from 10 nM to 200 nM. The equilibrium dissociation constant (unit M) of the reaction between antibodies and recombinant purified IL-17 antigens was then calculated from the kinetic rate constants by the following formula: KD=koff/kon. Binding was recorded as a function of time and kinetic rate constants are calculated. In this assay, on-rates as fast as 10⁶ M⁻¹ s⁻¹ and off-rates as slow as 10⁻⁶ s⁻¹ can be measured.

human IL-17A/F [7] = target: T8, human IL-17A/F (human, UniProt Q16552 24-155; Q96PD4 31-163); experiment: SPR Biacore, captured binder
T8 construct: Heterodimer of IL-17A and IL-17F, purified recombinant; also called HuIL-17A/F; Hu IL-17A/F
T8 sequence (Q16552 24-155 limits assumed, chain 1 of 2): as the sequence (Q16552 24-155) above
T8 sequence (Q96PD4 31-163 limits assumed, chain 2 of 2): as the sequence (Q96PD4 31-163, chain 2 of 2) above
Procedure: as §1

cyno IL-17A = cyno IL-17A (cynomolgus monkey, UniProt A0A2K5TTB0 24-155); experiment: SPR Biacore, captured binder
Sequence of cyno IL-17A (A0A2K5TTB0 entry or part of it): as the sequence (Q16552 24-155) above, with T3A, P8S, N34S, I77V, N78K, P104R counted along it
Procedure: as §1

T3 sequence (A0A2K5TTB0 entry or part of it): as the sequence (Q16552 24-155) above, with T3A, P8S, N34S, I77V, N78K, P104R counted along it

| Binder | EC50 (human IL-17A [4]) | Potency (pM), IL-17-driven IL-6 production in HS27 cells (human IL-17A [5]) | Kd (human IL-17A [6]) | koff (human IL-17A [6]) | kon (human IL-17A [6]) | Kd (human IL-17A/F [7]) | koff (human IL-17A/F [7]) | kon (human IL-17A/F [7]) | Kd (cyno IL-17A) | koff (cyno IL-17A) | kon (cyno IL-17A) | further results |
| --- | --- | --- | --- | --- | --- | --- | --- | --- | --- | --- | --- | --- |
| B1 |  |  |  |  |  |  |  |  |  |  |  | EC50 (human IL-17A [1]): 0.03 nM; Kd (human IL-17A [2]): 0.521 nM; koff (human IL-17A [2]): 0.000493 s⁻¹; kon (human IL-17A [2]): 947000 M⁻¹ s⁻¹; Kd (human IL-17A/F [3]): 1.31 nM; koff (human IL-17A/F [3]): 0.00101 s⁻¹; kon (human IL-17A/F [3]): 772000 M⁻¹ s⁻¹; Kd (cynomolgus monkey IL-17A): 0.437 nM; koff (cynomolgus monkey IL-17A): 0.000254 s⁻¹; kon (cynomolgus monkey IL-17A): 581000 M⁻¹ s⁻¹; Kd (rat IL-17A): 9.15 nM; koff (rat IL-17A): 0.00421 s⁻¹; kon (rat IL-17A): 460000 M⁻¹ s⁻¹; Kd (mouse IL-17A): 2.91 nM; koff (mouse IL-17A): 0.0005 s⁻¹; kon (mouse IL-17A): 172000 M⁻¹ s⁻¹ |
| B2 | 7.45 nM |  |  |  |  |  |  |  |  |  |  |  |
| B3 | 0.14 nM | 59 pM |  |  |  |  |  |  |  |  |  |  |
| B4 | 0.16 nM |  |  |  |  |  |  |  |  |  |  |  |
| B5 |  |  | 0.00794 nM | 3e-05 s⁻¹ | 3.78e+06 M⁻¹ s⁻¹ | 0.0164 nM | 6.57e-05 s⁻¹ | 4e+06 M⁻¹ s⁻¹ | 0.00483 nM | 4.48e-05 s⁻¹ | 9.27e+06 M⁻¹ s⁻¹ |  |
| B6 |  |  | 0.0073 nM | 6.02e-05 s⁻¹ | 8.25e+06 M⁻¹ s⁻¹ | 0.00647 nM | 5.71e-05 s⁻¹ | 8.82e+06 M⁻¹ s⁻¹ | 0.00401 nM | 5.5e-05 s⁻¹ | 1.37e+07 M⁻¹ s⁻¹ |  |
| B7 | 0.09 nM | 134 pM |  |  |  |  |  |  |  |  |  |  |
| B8 |  |  | 0.84 nM | 1.47e-05 s⁻¹ | 17500 M⁻¹ s⁻¹ | 21.9 nM | 0.000175 s⁻¹ | 7980 M⁻¹ s⁻¹ | 0.992 nM | 2.51e-05 s⁻¹ | 25300 M⁻¹ s⁻¹ |  |
| B9 | 0.05 nM | 334 pM |  |  |  |  |  |  |  |  |  |  |
| B10 | 0.12 nM | 310 pM |  |  |  |  |  |  |  |  |  |  |
| B11 | 0.08 nM | 88 pM |  |  |  |  |  |  |  |  |  |  |
| B12 | 0.12 nM | 884 pM |  |  |  |  |  |  |  |  |  |  |
| B13 |  |  | 0.00322 nM | 1e-06 s⁻¹ | 311000 M⁻¹ s⁻¹ | 0.244 nM | 3.95e-05 s⁻¹ | 162000 M⁻¹ s⁻¹ | 0.00265 nM | 1e-06 s⁻¹ | 377000 M⁻¹ s⁻¹ |  |
| B14 |  |  | 0.00826 nM | 2.32e-06 s⁻¹ | 281000 M⁻¹ s⁻¹ | 0.0103 nM | 1.41e-06 s⁻¹ | 137000 M⁻¹ s⁻¹ | < 0.00245 nM | < 1e-06 s⁻¹ | 408000 M⁻¹ s⁻¹ |  |
